Assay results taken from patent US20240400630A1.

Experiments:
[1] = target: IL-15R on human PBMCs (NK cells, CD8+ T cells, CD4+ T cells) (human); experiment: cell-based or functional assay
[2] = target: IL-2/IL-15 receptor on IL-2/IL-15-responsive HEK293 cells (human CD25 (IL-2Rα), CD122 (IL-2Rβ), CD132 (IL-2Rγ)) (human) (UniProt P01589); experiment: cell-based or functional assay
IL-2/IL-15 receptor on IL-2/IL-15-responsive HEK293 cells (human CD25 (IL-2Rα), CD122 (IL-2Rβ), CD132 (IL-2Rγ)) (human), sequence (P01589 22-272, chain 1 of 3): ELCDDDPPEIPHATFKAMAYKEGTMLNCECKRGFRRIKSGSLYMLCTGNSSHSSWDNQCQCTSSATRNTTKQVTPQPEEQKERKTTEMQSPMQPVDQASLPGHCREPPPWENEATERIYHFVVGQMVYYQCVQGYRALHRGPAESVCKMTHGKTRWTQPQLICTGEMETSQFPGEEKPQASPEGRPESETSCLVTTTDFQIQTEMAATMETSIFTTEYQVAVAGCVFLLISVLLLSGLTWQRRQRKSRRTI
IL-2/IL-15 receptor on IL-2/IL-15-responsive HEK293 cells (human CD25 (IL-2Rα), CD122 (IL-2Rβ), CD132 (IL-2Rγ)) (human), sequence (P14784 27-551, chain 2 of 3, further chain): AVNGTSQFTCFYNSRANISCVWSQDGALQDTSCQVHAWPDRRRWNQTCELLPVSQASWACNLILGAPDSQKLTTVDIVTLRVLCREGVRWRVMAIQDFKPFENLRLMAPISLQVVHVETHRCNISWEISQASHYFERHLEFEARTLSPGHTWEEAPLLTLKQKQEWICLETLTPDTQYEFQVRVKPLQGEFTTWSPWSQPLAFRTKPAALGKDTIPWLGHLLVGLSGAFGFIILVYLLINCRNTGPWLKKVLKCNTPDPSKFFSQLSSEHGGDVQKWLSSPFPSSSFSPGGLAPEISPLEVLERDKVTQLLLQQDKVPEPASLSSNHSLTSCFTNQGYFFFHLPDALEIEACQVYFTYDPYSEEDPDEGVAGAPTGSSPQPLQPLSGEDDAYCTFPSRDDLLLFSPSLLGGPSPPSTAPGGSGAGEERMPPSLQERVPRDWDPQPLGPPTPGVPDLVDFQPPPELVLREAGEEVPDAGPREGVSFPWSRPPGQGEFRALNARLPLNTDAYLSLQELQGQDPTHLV
IL-2/IL-15 receptor on IL-2/IL-15-responsive HEK293 cells (human CD25 (IL-2Rα), CD122 (IL-2Rβ), CD132 (IL-2Rγ)) (human), sequence (P31785 23-369, chain 3 of 3, further chain): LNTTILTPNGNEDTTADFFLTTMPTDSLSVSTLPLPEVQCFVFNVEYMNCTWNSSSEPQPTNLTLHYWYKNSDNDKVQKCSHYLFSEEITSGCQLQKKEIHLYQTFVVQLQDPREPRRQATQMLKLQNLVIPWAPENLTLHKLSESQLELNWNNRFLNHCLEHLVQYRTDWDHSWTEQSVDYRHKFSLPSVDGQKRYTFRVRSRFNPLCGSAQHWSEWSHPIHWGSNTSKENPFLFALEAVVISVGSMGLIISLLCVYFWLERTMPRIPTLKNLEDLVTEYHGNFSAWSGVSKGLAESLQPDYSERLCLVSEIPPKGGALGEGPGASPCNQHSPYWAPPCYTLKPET

**Q.** For “PeproTech IL-15 (Recombinant human IL-15, available from PeproTech, Catalog #200-15) (from UniProt P40933 49-162) (ligand)”, which EC50: Human PBMC Proliferation Ki67, CD4 [1] is on record?
**A.** 121 pM

**Q.** And the EC50: Human PBMC Proliferation Ki67, CD8 [1]?
**A.** 221 pM

**Q.** What about the EC50: Human PBMC Proliferation Ki67, NK Cells [1] of the same substance?
**A.** 4 pM

**Q.** And the EC50: Human PBMC STAT5 Phosphorylation, CD4 [1]?
**A.** 6.97 pM

**Q.** What about the EC50: Human PBMC STAT5 Phosphorylation, CD8 [1] of the same substance?
**A.** 6.4 pM

**Q.** And the EC50: Human PBMC STAT5 Phosphorylation, NK cells [1]?
**A.** 1.79 pM

**Q.** What about the EC50: HEK-Blue Reporter Assay [2] of the same substance?
**A.** 1.48 pM

**Q.** And the EC50: HEK-Blue Reporter Assay (average, n>3) [2]?
**A.** 1.46 pM
